Target: human chorionic gonadotropin (hCG) heterodimer (Homo sapiens) (UniProt P01215+P0DN86)
Assay: filter
Details: 2'-F all pyrimidines (RNA transcript of template)

human chorionic gonadotropin (hCG) heterodimer (Homo sapiens), sequence (P01215 25-116, chain 1 of 2, other chains not shown): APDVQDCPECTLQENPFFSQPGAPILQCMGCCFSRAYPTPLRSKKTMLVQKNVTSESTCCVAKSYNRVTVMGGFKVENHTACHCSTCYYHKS

GGGAGACAAGAAUAAACGCUCAANNNNNNNNNNNNNNNNNNNNNNNNNNNNNNNNNNNNNNNNUUCGACAGGAGGCUCACAACAGGC [2'-F random 40N8 pool]
Kd (estimate, <1% bound at up to 80 uM): > 800 µM

GGGAGGACGAUGCGGNNNNNNNNNNNNNUUGAACGAUCCUUNNNNNNNNNNNNNCAGACGACUCGCCCGA [CG2N7 unselected pool]
binding (up to 40 uM hCG): < 1 % bound

Reference: US5849890
